Source: PMC11452662, “Biofunctionalized dissolvable hydrogel microbeads enable efficient characterization of native protein complexes” (Nature Communications, 2024)
Several values for one entry are separate records, joined by “and”; a condition that tells them apart may be missing. Equal entries are not always repeated.

T1: Thermoplasma acidophilum 20S proteasome β subunit with Twin-Strep-tag (Thermoplasma acidophilum, UniProt P28061 9-211)
T1 construct: 20S proteasome β subunit of Thermoplasma acidophilum; not shown: Twin-Strep-tag, C-terminal, kept
T1 sequence (looked up): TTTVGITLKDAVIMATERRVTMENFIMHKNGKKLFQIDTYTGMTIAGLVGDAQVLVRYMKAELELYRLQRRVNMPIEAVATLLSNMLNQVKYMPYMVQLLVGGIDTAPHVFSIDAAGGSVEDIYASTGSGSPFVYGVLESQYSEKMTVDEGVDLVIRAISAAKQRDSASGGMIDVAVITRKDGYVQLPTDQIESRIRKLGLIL


How the values were obtained:
[1] = molecular target: Hp of the Hp(2)Ab(1) complex; experiment: native MS; tandem MS with increasing collisional energy of the bait-target complex Hp(2)Hb(4)Ab(1), Hb as bait
[2] = molecular target: T1, Thermoplasma acidophilum 20S proteasome …; experiment: native MS; 20S purified with Strep-Tactin SNAP beads, α and β coded in the same plasmid; 150 mM ammonium acetate; conditions: partners not purified
[3] = molecular target: the molecule itself; experiment: native MS; 20S purified with Strep-Tactin SNAP beads, α and β expressed from two separate plasmids; 150 mM ammonium acetate

stoichiometry N [1] | stoichiometry N [2] | Molecule | stoichiometry N [3]
2 | – | Hp of the Hp(2)Ab(1) complex | –
– | 28 subunits in the complex of α and β | Thermoplasma acidophilum 20S proteasome α subunit, unmodified (natural protein, UniProt P25156 1-233, looked up, 20S proteasome α subunit of Thermoplasma acidophilum; The results call this α subunit unmodified; the methods say that the constructs were tagged at the C-termini with either a Twin-Strep-tag or a His tag) MQQGQMAYDRAITVFSPDGRLFQVEYAREAVKKGSTALGMKFANGVLLISDKKVRSRLIEQNSIEKIQLIDDYVAAVTSGLVADARVLVDFARISAQQEKVTYGSLVNIENLVKRVADQMQQYTQYGGVRPYGVSLIFAGIDQIGPRLFDCDPAGTINEYKATAIGSGKDAVVSFLEREYKENLPEKEAVTLGIKALKSSLEEGEELKAPEIASITVGNKYRIYDQEEVKKFL | 7 and 14
